19 sequences from the Immune Epitope Database (IEDB) can be followed below.

The target of assay [1] is HLA-B*07:02. In words: IEDB peptide-MHC binding, purified MHC/competitive/fluorescence; ≥ and ≤ were set here for values at or beyond the usual limits of such assays.
In assay [2] the target is HLA-B*07:02. Description: IEDB peptide-MHC binding, purified MHC/competitive/fluorescence; filed as Kd, often an IC50 or EC50 that approximates it; ≥ and ≤ were set here for values at or beyond the usual limits of such assays. Particulars: source organism: Yersinia pestis Antiqua.
The next assay concerns the target HLA-C*14:02. Description: IEDB peptide-MHC binding, purified MHC/direct/fluorescence; filed as Kd, often an IC50 or EC50 that approximates it; ≥ and ≤ were set here for values at or beyond the usual limits of such assays.
Assay [3] addresses HLA-A*24:02. Description: IEDB peptide-MHC binding, purified MHC/competitive/fluorescence; filed as Kd, often an IC50 or EC50 that approximates it; ≥ and ≤ were set here for values at or beyond the usual limits of such assays.
In another assay the target is HLA-A*01:01. In words: IEDB peptide-MHC binding, purified MHC/competitive/fluorescence; ≥ and ≤ were set here for values at or beyond the usual limits of such assays.
Assay [4] deals with HLA-A*02:01. The description is as above.
Assay [5] deals with HLA-B*18:01. In words: IEDB peptide-MHC binding, purified MHC/direct/fluorescence; filed as Kd, often an IC50 or EC50 that approximates it; ≥ and ≤ were set here for values at or beyond the usual limits of such assays. Particulars: source organism: Alto Paraguay hantavirus.
In another assay the target is HLA-B*40:01. The assay is described as above. Particulars: source organism: Alto Paraguay hantavirus.
The target in assay [6] is HLA-A*24:02. In words: IEDB peptide-MHC binding, purified MHC/competitive/fluorescence; ≥ and ≤ were set here for values at or beyond the usual limits of such assays.
The target in assay [7] is HLA-B*15:01. Described as above.
The target of a further assay is HLA-B*08:01. The assay is described as above.
In another assay the target is HLA-B*27:05. Description: IEDB peptide-MHC binding, purified MHC/competitive/fluorescence; filed as Kd, often an IC50 or EC50 that approximates it; ≥ and ≤ were set here for values at or beyond the usual limits of such assays. The settings on record: source organism: Orthohantavirus dobravaense.
The next assay concerns the target HLA-A*69:01. The assay is described as above.
Assay [8] has as its target HLA-A*02:01. Described as above.
Assay [9] concerns the target HLA-B*18:01. The assay is described as above.
A further assay deals with HLA-B*46:01. The description is as above.
Another assay addresses HLA-B*39:01. The description is as above.
Another assay has as its target HLA-B*51:01. The description is as above.
Assay [10] addresses HLA-B*15:01. The description is as above.
The target in a further assay is HLA-B*15:17. The assay is described as above.
The target of assay [11] is HLA-A*26:01. The description is as above. The settings on record: source organism: Orthohantavirus dobravaense.
In a further assay the target is HLA-B*57:01. The assay is described as above.
Another assay addresses HLA-A*24:03. In words: IEDB peptide-MHC binding, purified MHC/direct/fluorescence; filed as Kd, often an IC50 or EC50 that approximates it; ≥ and ≤ were set here for values at or beyond the usual limits of such assays.
Another assay concerns the target HLA-A*02:12. The description is as above.
In a further assay the target is HLA-A*02:19. The assay is described as above.
The target of the next assay is HLA-A*02:03. Described as above.
For another assay, the target named is HLA-A*02:11. The description is as above.
Assay [12] concerns the target HLA-A*03:01. The description is as above.
A further assay addresses HLA-A*02:16. The description is as above.
The next assay concerns the target HLA-A*68:02. The description is as above.
In the next assay the target is HLA-A*29:02. The assay is described as above.
The next assay has as its target HLA-A*23:01. The assay is described as above.
For a further assay, the target named is HLA-B*27:03. Description: IEDB peptide-MHC binding, purified MHC/competitive/fluorescence; filed as Kd, often an IC50 or EC50 that approximates it; ≥ and ≤ were set here for values at or beyond the usual limits of such assays. The settings on record: source organism: Zaire ebolavirus.
For assay [13], the target named is HLA-A*26:01. Description: IEDB peptide-MHC binding, purified MHC/direct/fluorescence; filed as Kd, often an IC50 or EC50 that approximates it; ≥ and ≤ were set here for values at or beyond the usual limits of such assays. The settings on record: source organism: Zaire ebolavirus.
The target in a further assay is HLA-A*11:01. In words: IEDB peptide-MHC binding, purified MHC/competitive/fluorescence; ≥ and ≤ were set here for values at or beyond the usual limits of such assays. The settings on record: source organism: Sudan ebolavirus.
Assay [14] concerns the target HLA-A*03:01. The description is as above. The settings on record: source organism: Sudan ebolavirus.
The mark [15] stands for this setting: source organism: Zaire ebolavirus.
Setting [16] is: source organism: Orthohantavirus dobravaense.
The mark [17] stands for this setting: source organism: Vaccinia virus WR.
[18] abbreviates: source organism: Vaccinia virus Copenhagen.
[19] abbreviates: source organism: Vaccinia virus.
[20] abbreviates: source organism: Orthohantavirus sangassouense.

For orientation: IC50 means the concentration at which inhibition is half-maximal. In the assay with HLA-B*07:02 [1] (setting [15]), VPSATKRWG gave an IC50 of 64.6 µM.
For orientation: Kd means the free concentration of one partner at which half of the binding sites on the other are occupied at equilibrium, for simple one-to-one binding. A high value points to a looser complex. As for AKRYEKSAM, the dissociation constant (Kd) with HLA-B*07:02 [2] is at least 20 µM; with HLA-C*14:02 (source organism: Yersinia pestis Antiqua), 1.05 µM.
Sequence ITPKTHFLF gave a dissociation constant Kd with HLA-A*24:02 [3] (source organism: Giardia intestinalis ATCC 50581) of 0.0002 µM.
For the sequence IWGGTSFLF, in the assay with HLA-A*24:02 [3] (source organism: Salmonella enterica subsp. enterica serovar Typhi), the Kd is at most 0.0001 µM.
Take ASENSSAMV: the IC50 with HLA-A*01:01 (setting [15]) was 43.5 µM; with HLA-A*02:01 [4] (setting [15]), at least 147 µM.
KEISNQEPL: the Kd with HLA-B*18:01 [5] was found to be 0.357 µM; with HLA-B*40:01, 0.0032 µM; with HLA-C*14:02 (setting [16]) it was 2.07 µM.
Take AQPKCNPNL: the concentration for half-maximal inhibition (IC50) with HLA-A*02:01 [4] (setting [15]) was 47.6 µM; with HLA-A*24:02 [6] (setting [15]) it was 12.1 µM; in the assay with HLA-B*07:02 [1] (setting [15]) it was at least 121 µM; in the assay with HLA-B*15:01 [7] (setting [15]), at least 93.5 µM.
Turning to VSHLTTLAT, the half-inhibitory concentration (IC50) with HLA-A*02:01 [4] (setting [15]) is at least 719 µM; in the assay with HLA-B*15:01 [7] (setting [15]), 28.7 µM.
Regarding FGLYKSINV, the IC50 was found to be 0.744 µM in the assay with HLA-A*02:01 [4] (setting [17]) and 37 µM in the assay with HLA-B*08:01 (setting [17]).
The sequence RQLAKAIIT yielded a half-maximal inhibitory concentration (IC50) in the assay with HLA-B*15:01 [7] (setting [18]) of 40.8 µM.
As to IDILRSLET, the results for the IC50 with HLA-A*02:01 [4] (setting [19]) and in the assay with HLA-B*08:01 (setting [19]) were 44.3 µM and at least 514 µM, respectively.
As for APPPQRAAM, in the assay with HLA-C*14:02 (source organism: Mycobacterium tuberculosis variant bovis BCG str. Pasteur 1173P2), the Kd came out at 0.061 µM.
In the assay with HLA-A*24:02 [3] (source organism: Influenza A virus (A/Harbin/1/1988(H1N2))), SFERFEIF gave a Kd of 0.237 µM.
Turning to KHHTKIDSM, the IC50 with HLA-A*24:02 [6] (source organism: Variola virus) is 1.69 µM; in the assay with HLA-B*08:01 (source organism: Variola virus) it was at least 209 µM.
On to MRNTIMASK, for which the dissociation constant (Kd) with HLA-B*27:05 is 0.144 µM; in the assay with HLA-A*69:01 (setting [16]), at least 20 µM; with HLA-A*02:01 [8] (setting [16]), at least 20 µM; with HLA-B*18:01 [9] (setting [16]) it was at least 20 µM; with HLA-B*46:01 (setting [16]), at least 20 µM; in the assay with HLA-B*39:01 (setting [16]), at least 20 µM. The Kd in the assay with HLA-B*51:01 (setting [16]), with HLA-B*15:01 [10] (setting [16]), in the assay with HLA-B*15:17 (setting [16]), with HLA-A*26:01 [11], with HLA-B*57:01 (setting [16]) and with HLA-A*24:03 (setting [20]) was at least 20 µM throughout. Besides, the Kd with HLA-A*02:12 (setting [20]), with HLA-A*02:19 (setting [20]), with HLA-A*02:03 (setting [20]), with HLA-A*02:11 (setting [20]), in the assay with HLA-A*03:01 [12] (setting [20]) and in the assay with HLA-A*02:16 (setting [20]) was at least 20 µM throughout. In addition, the Kd with HLA-A*68:02 (setting [20]), with HLA-A*29:02 (setting [20]) and in the assay with HLA-A*23:01 (setting [20]) was at least 20 µM in each case.
Consider EAEKQLQQY, for which the Kd with HLA-A*69:01 (setting [15]), with HLA-A*02:01 [8] (setting [15]), with HLA-B*18:01 [9] (setting [15]), in the assay with HLA-B*46:01 (setting [15]), in the assay with HLA-B*39:01 (setting [15]) and with HLA-B*51:01 (setting [15]) was at least 20 µM in each case. Besides, the Kd with HLA-B*15:01 [10] (setting [15]), in the assay with HLA-B*15:17 (setting [15]), with HLA-B*27:03, with HLA-B*57:01 (setting [15]), in the assay with HLA-A*24:03 (setting [15]) and with HLA-A*02:12 (setting [15]) was at least 20 µM throughout. For the same sequence, the Kd with HLA-A*02:19 (setting [15]) is at least 20 µM; with HLA-A*02:03 (setting [15]), at least 20 µM; with HLA-A*02:11 (setting [15]), at least 20 µM; with HLA-A*03:01 [12] (setting [15]) it was at least 20 µM; in the assay with HLA-A*02:16 (setting [15]) it was at least 20 µM; with HLA-A*26:01 [13] it was 2.24 µM. The equilibrium dissociation constant (Kd) with HLA-A*68:02 (setting [15]), with HLA-A*29:02 (setting [15]) and with HLA-A*23:01 (setting [15]) was at least 20 µM each time. For the same sequence, in the assay with HLA-A*01:01 (setting [15]), the half-maximal inhibitory concentration (IC50) came to 18.1 µM.
Take STDIPSATK: the IC50 with HLA-A*01:01 (source organism: Sudan ebolavirus) was at least 76.4 µM; with HLA-A*11:01 it was 1.47 µM; in the assay with HLA-A*03:01 [14], 65.6 µM.
Turning to YQSYSENGM, the concentration for half-maximal inhibition (IC50) was determined as 27.9 µM with HLA-A*02:01 [4] (setting [15]) and 16.7 µM with HLA-B*15:01 [7] (setting [15]).
In the assay with HLA-B*07:02 [1] (setting [18]), IPNSLHSLS yielded an IC50 of at least 136 µM.
